Experiments:
[1] = target: human CD28 on cells (human) (UniProt P10747); test: flow cytometry on human CD2+/CD4+ T cells, Alexa647 read-out
[2] = target: human CD28 on cells (human) (UniProt P10747); test: flow cytometry on human CD2+/CD8+ T cells, Alexa647 read-out
[3] = target: cynomolgus CD28 on cynomolgus T cells (cynomolgus) (UniProt Q0PDN3); test: flow cytometry on cynomolgus CD2+/CD4+ T cells, Alexa647 read-out
[4] = target: cynomolgus CD28 on cynomolgus T cells (cynomolgus) (UniProt Q0PDN3); test: flow cytometry on cynomolgus CD2+/CD8+ T cells, Alexa647 read-out

Measured: EC50 (read off the curve)

REGN5705 (antibody)
0.05 nM: [1] | [2] | [3] | [4]

Reference: US20230322927A1
